{"source": "patent US20180326085A1", "about": "(Merck KGaA, published 2018)", "binders": {"B1": {"name": "oa B10v5 (antibody, V domains shown)", "VH": "not shown", "VL": "EPVLTQPPSVSVAPGETATIPCGGDSLGSKIVHWYQQRPGQAPLLVVYDDAARPSGIPERFSGSKSGTTATLTISSVEAGDEADYFCQVYDYHSDVEVFGGGTKLTVLG", "notes": "one-armed (monovalent) anti-c-MET SEED molecule; also called one-armed B10v5"}, "B2": {"name": "oa 225-L (antibody, V domains shown)", "VH": "EVQLVQSGAEVKKPGASVKVSCKASGFSLTNYGVHWMRQAPGQGLEWIGVIWRGGNTDYNTPFTSRVTITSDKSTSTAYMELSSLRSEDTAVYYCARALTYYDYEFAYWGQGTLVTVSS", "VL": "DIQMTQSPSSLSASVGDRVTITCRASQSIGTNIHWYQQKPGKAPKLLIKYASESISGVPSRFSGSGYGTDFTLTISSLQPEDVATYYCQQNNNWPTTFGQGTKVEIK", "notes": "one-armed (monovalent) anti-EGFR SEED molecule"}, "B3": {"name": "CS06x225-H (bispecific c-MET x EGFR SEEDbody) (bispecific antibody, V domains shown)", "VH 1": "QVQLQQSGAEVKKPGSSAKVSCKASGGTFSSNAISWVRQAPGQGLEWMGGIIPIFGTAIYAQKFQGRVTITADESTSTAYMELSSLRSEDTAVYYCARDQRGYYYYYYYGMDVWGQGTTVTVSS", "VL 1": "QLVLTQSPSVSVAPGKTARITCGGNNIRNVGVHWYQKKPGQAPILVVYDDDDRPSGVPERFSGSNSGNTATLTISRVEAGDEADYYCQVWDSATDQRVFGGGTKLTVLGQPKAG", "VH 2": "B2 VH with R53S, T100D", "VL 2": "B2 VL with N93E, T96N", "notes": "The rest is a SEEDbody: IgG1 hinge-CH2-SEED CH3 (AG/GA)"}, "B4": {"name": "B10v5x225-H (bispecific c-MET x EGFR SEEDbody) (bispecific antibody, V domains shown)", "VH 1": "not shown", "VL 1": "EPVLTQPPSVSVAPGETATIPCGGDSLGSKIVHWYQQRPGQAPLLVVYDDAARPSGIPERFSGSKSGTTATLTISSVEAGDEADYFCQVYDYHSDVEVFGGGTKLTVLGQPKAA", "VH 2": "B2 VH with R53S, T100D", "VL 2": "B2 VL with N93E, T96N", "notes": "hu225-H); SEEDbody format (IgG1 hinge-CH2-SEED CH3)"}, "B5": {"name": "oa225-M (antibody, V domains shown)", "VH": "B2 VH with R53S", "VL": "B2 VL with N92Y", "notes": "as for B2"}, "B6": {"name": "oa B10 (antibody, V domains shown)", "VH": "not shown", "VL": "QSVLTQPPSTSGTPGQRVTISCFGSSSNVGVNTVNWYRQLPGTAPKLLIYDNNLRPSGVPERFSGSKSGTSASLAITGLQAEDEGDYYCQSYDSSLSDVVFGGGTKLTVLG", "notes": "one-armed (monovalent) anti-c-MET SEED molecule; also called one-armed B10"}, "B7": {"name": "oa CS06 (antibody, V domains shown)", "VH": "B3 VH 1", "VL": "QLVLTQSPSVSVAPGKTARITCGGNNIRNVGVHWYQKKPGQAPILVVYDDDDRPSGVPERFSGSNSGNTATLTISRVEAGDEADYYCQVWDSATDQRVFGGGTKLTVLG", "notes": "one-armed (monovalent) anti-c-MET SEED molecule; also called one-armed CS06"}, "B8": {"name": "oa 425 (antibody, V domains shown)", "VH": "QVQLVQSGAEVKKPGASVKVSCKASGYTFTSHWMHWVRQAPGQGLEWIGEFNPSNGRTNYNEKFKSKATMTVDTSTNTAYMELSSLRSEDTAVYYCASRDYDYDGRYFDYWGQGTLVTVSS", "VL": "DIQMTQSPSSLSASVGDRVTITCSASSSVTYMYWYQQKPGKAPKLLIYDTSNLASGVPSRFSGSGSGTDYTFTISSLQPEDIATYYCQQWSSHIFTFGQGTKVEIKR", "notes": "as for B2"}}, "note": "Changes are numbered by the printed parent chain."}
{"biological_target": "T1, c-MET on cells (human, UniProt P08581)", "T1 construct": "endogenous receptor on the cell surface; for A549 cells m4 is used; also called HGFR; on NCI-H441, EBC-1, A431, MKN-45, SK-MEL2 or HepG2 cells (cell line under assay)", "assay": "flow cytometry, SK-MEL2 cells (c-MET+ EGFR-)"}
{"binder": "B1", "MFI at 100 nM": 272}
{"binder": "B2", "MFI at 100 nM": 17, "binding result": "no binding (tested: 100 nM)"}
{"binder": "B3", "MFI at 100 nM": 164}
{"binder": "B4", "MFI at 100 nM": 222}
{"binder": "B5", "MFI at 100 nM": 19, "binding result": "no binding (tested: 100 nM)"}
{"binder": "B6", "MFI at 100 nM": 39}
{"binder": "B7", "MFI at 100 nM": 213}
{"binder": "B8", "MFI at 100 nM": 17, "binding result": "no binding (tested: 100 nM)"}
{"biological_target": "T1, c-MET on cells", "assay": "flow cytometry, MKN-45 cells (c-MET+++ EGFR++)"}
{"binder": "B1", "MFI at 100 nM": 1500}
{"binder": "B6", "MFI at 100 nM": 916}
{"binder": "B7", "MFI at 100 nM": 1490}
{"biological_target": "T2, c-MET and EGFR co-expressed on cells (human, UniProt P08581;P00533)", "T2 construct": "endogenous receptor on the cell surface; not a complex: two separate receptors on the same cell; used as target only for bispecific c-MET x EGFR molecules, whose cell staining cannot be split between the two arms; also called cells that carry both receptors: NCI-H441, EBC-1, A431, MKN-45, A549, HepG2 (cell line under assay)", "assay": "flow cytometry, MKN-45 cells (c-MET+++ EGFR++)"}
{"binder": "B3", "MFI at 100 nM": 1550}
{"binder": "B4", "MFI at 100 nM": 1330}
{"biological_target": "T3, EGFR on cells (human, UniProt P00533)", "T3 construct": "endogenous receptor on the cell surface; for A549 cells m5 is used; also called on NCI-H441, EBC-1, A431, MKN-45, HepG2 or T47D cells (cell line under assay)", "assay": "flow cytometry, MKN-45 cells (c-MET+++ EGFR++)"}
{"binder": "B2", "MFI at 100 nM": 83}
{"binder": "B5", "MFI at 100 nM": 144}
{"binder": "B8", "MFI at 100 nM": 184}
{"biological_target": "T4, biotinylated recombinant human c-MET ECD (HGFR extracellular domain) (human, UniProt P08581 25-932, biotinylated (sites not given))", "T4 construct": "extracellular domain; also called human c-MET ECD-His", "assay": "HGF competition ELISA: HGF on the plate, biotinylated c-MET ECD pre-incubated with the antibody; blocked ligand HGF", "units": {"IC50 (read off the curve)": "nM"}}
{"binder": "B1", "IC50 (read off the curve)": "~6"}
{"binder": "B7", "IC50 (read off the curve)": "~8"}
{"biological_target": "T1, c-MET on cells", "assay": "flow cytometry, EBC-1 cells (c-MET+++ EGFR++)"}
{"binder": "B1", "MFI at 100 nM": 2310}
{"binder": "B6", "MFI at 100 nM": 952}
{"binder": "B7", "MFI at 100 nM": 2630}
{"biological_target": "T2, c-MET and EGFR co-expressed on cells", "assay": "flow cytometry, EBC-1 cells (c-MET+++ EGFR++)"}
{"binder": "B3", "MFI at 100 nM": 1560}
{"binder": "B4", "MFI at 100 nM": 2060}
{"biological_target": "T3, EGFR on cells", "assay": "flow cytometry, EBC-1 cells (c-MET+++ EGFR++)"}
{"binder": "B2", "MFI at 100 nM": 137}
{"binder": "B5", "MFI at 100 nM": 189}
{"binder": "B8", "MFI at 100 nM": 212}
{"biological_target": "T1, c-MET on cells", "assay": "flow cytometry on NCI-H441 cells (express c-MET and EGFR), FITC anti-human Fc, n=3", "units": {"EC50 (read off the curve)": "nM"}}
{"binder": "B1", "EC50 (read off the curve)": "~1"}
{"binder": "B7", "EC50 (read off the curve)": "~0.3"}
{"biological_target": "T2, c-MET and EGFR co-expressed on cells", "assay": "flow cytometry on NCI-H441 cells (express c-MET and EGFR), FITC anti-human Fc, n=3", "units": {"EC50 (read off the curve)": "nM"}}
{"binder": "B3", "EC50 (read off the curve)": "~0.3"}
{"binder": "B4", "EC50 (read off the curve)": "~0.5"}
{"biological_target": "T5, EGFR (soluble extracellular domain) (human, UniProt P00533)", "T5 construct": "soluble extracellular domain; also called Human EGFR extracellular domain, R&D Systems 1095-ER", "assay": "BLI (Octet), antibody on anti-human Fc biosensors, soluble EGFR ECD as analyte", "units": {"Kd": "nM", "koff": "s⁻¹", "kon": "M⁻¹ s⁻¹"}}
{"binder": "B2", "Kd": 220, "koff": 0.14, "kon": 610000}
{"binder": "B3", "Kd": 0.12, "koff": 0.00039, "kon": "3.3e+06"}
{"binder": "B4", "Kd": 0.15, "koff": 0.00053, "kon": "3.5e+06"}
{"binder": "B5", "Kd": 4.4, "koff": 0.016, "kon": "3.7e+06"}
{"binder": "B8", "Kd": 22, "koff": 0.012, "kon": 530000}
{"biological_target": "T4, biotinylated recombinant human c-MET …", "assay": "BLI (Octet), antibody on anti-human Fc biosensors, soluble c-MET ECD as analyte", "units": {"Kd": "nM", "koff": "s⁻¹", "kon": "M⁻¹ s⁻¹"}}
{"binder": "B1", "Kd": 0.38, "koff": 0.00016, "kon": 400000}
{"binder": "B3", "Kd": 0.12, "koff": 0.00039, "kon": "3.3e+06"}
{"binder": "B4", "Kd": 0.36, "koff": 0.00015, "kon": 400000}
{"binder": "B6", "Kd": 12, "koff": 0.0012, "kon": 100000}
{"binder": "B7", "Kd": 0.19, "koff": 0.00021, "kon": "1.1e+06"}
{"biological_target": "T1, c-MET on cells", "assay": "flow cytometry, HepG2 cells (c-MET+ EGFR+)"}
{"binder": "B1", "MFI at 100 nM": 399}
{"binder": "B6", "MFI at 100 nM": 69}
{"binder": "B7", "MFI at 100 nM": 296}
{"biological_target": "T2, c-MET and EGFR co-expressed on cells", "assay": "flow cytometry, HepG2 cells (c-MET+ EGFR+)"}
{"binder": "B3", "MFI at 100 nM": 198}
{"binder": "B4", "MFI at 100 nM": 352}
{"biological_target": "T3, EGFR on cells", "assay": "flow cytometry, HepG2 cells (c-MET+ EGFR+)"}
{"binder": "B2", "MFI at 100 nM": 22}
{"binder": "B5", "MFI at 100 nM": 40}
{"binder": "B8", "MFI at 100 nM": 50}
{"biological_target": "T1, c-MET on cells", "assay": "flow cytometry, A431 cells (c-MET+ EGFR+++)"}
{"binder": "B1", "MFI at 100 nM": 49}
{"binder": "B6", "MFI at 100 nM": 103}
{"binder": "B7", "MFI at 100 nM": 37}
{"biological_target": "T2, c-MET and EGFR co-expressed on cells", "assay": "flow cytometry, A431 cells (c-MET+ EGFR+++)"}
{"binder": "B3", "MFI at 100 nM": 1860}
{"binder": "B4", "MFI at 100 nM": 1760}
{"biological_target": "T3, EGFR on cells", "assay": "flow cytometry, A431 cells (c-MET+ EGFR+++)"}
{"binder": "B2", "MFI at 100 nM": 1260}
{"binder": "B5", "MFI at 100 nM": 1500}
{"binder": "B8", "MFI at 100 nM": 1150}
{"biological_target": "T6, c-MET (hepatocyte growth factor receptor) on A549 cells (human, UniProt P08581 25-1390)", "T6 construct": "whole, on cells; Endogenous receptor of A549 cells; phosphorylation read out in cell lysates; also called HGFR", "assay": "flow cytometry, A549 cells (c-MET+ EGFR++)"}
{"binder": "B1", "MFI at 100 nM": 91}
{"binder": "B6", "MFI at 100 nM": 130}
{"binder": "B7", "MFI at 100 nM": 147}
{"biological_target": "T2, c-MET and EGFR co-expressed on cells", "assay": "flow cytometry, A549 cells (c-MET+ EGFR++)"}
{"binder": "B3", "MFI at 100 nM": 292}
{"binder": "B4", "MFI at 100 nM": 335}
{"biological_target": "T7, EGFR (epidermal growth factor receptor) on A549 cells (human, UniProt P00533 25-1210)", "T7 construct": "whole, on cells; Endogenous receptor of A549 cells; phosphorylation read out in cell lysates", "assay": "flow cytometry, A549 cells (c-MET+ EGFR++)"}
{"binder": "B2", "MFI at 100 nM": 91}
{"binder": "B5", "MFI at 100 nM": 138}
{"binder": "B8", "MFI at 100 nM": 170}
